± gives the uncertainty stated by the source.
Assay: self-splicing fitness, log relative to wild type (ln ratio); higher = more splicing; Tetrahymena group I intron in knt gene, E. coli kanamycin selection, DiMSum; sequences stand for … in CUCUCU…GGAGGGAAAAGUUAUCAGGCAUGCACCUGGUAGCUAGUCUUUAAACCAAUAGAUUGCAUCGGUUUAAAAGGCAAGACCGUCAAAUUGCGGGAAAGGGGUCAACAGCCGUUCAGUACCAAGUCUCAGGGGAAACUUUGAGAUGGCCUUGCAAAGGGUAUGGUAAUAAGCUGACGGACAUGGUCCUAACCACGCAGCCAAGUCCUAAGUCAACAGAUCUUCUGUUGAUAUGGAUGCAGUUCACAGACUAAAUGUCGGUCGGGGAAGAUGUAUUCUUCUCAUAAGAUAUAGUCGGACCUCUCCUUAAUGGGAGCUAGCGGAUGAAGUGAUGCAACACUGGAGCCGCUGGGAACUAAUUUGUAUGCGAAAGUAUAUUGAUUAGUUUUGGAGUACUCGUGGUCG
Summary of the method: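 Six replicate transformations of E. coli BL21(DE3) with a pET-22b(+) library were grown overnight at 37°C or 30°C. The library randomised all eight P1ex-region intron nucleotides, the intron lying in the knt kanamycin-resistance gene, and plates were LB agar with or without 25 μg/mL kanamycin plus 100 μg/mL carbenicillin, 50 μM IPTG and 0.2% rhamnose. Pooled colonies were amplicon-sequenced on an Illumina HiSeq 2500, and fitness is the DiMSum error-weighted combination of wild-type-normalised replicate fold changes, kanamycin versus none.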

Sequence | self-splicing fitness (ln) (30 °C) | self-splicing fitness (ln) (37 °C)
GGCGAGCAAUAUUACGACCG | -0.74 ± 0.28 | -0.371 ± 0.26
GGCGAGCAAUAUUACGACGC | -1.89 ± 0.29 | –
GGCGAGCAAUAUUACGAGGG | -0.768 ± 0.24 | –
GGCGAGCAAUAUUACGAUCU | -0.834 ± 0.12 | 0.229 ± 0.14
GGCGAGCAAUAUUACGCAAA | -2.13 ± 0.19 | -2.01 ± 0.14
GGCGAGCAAUAUUACGCAAU | -2.22 ± 0.12 | -0.788 ± 0.13
GGCGAGCAAUAUUACGCACU | -2.83 ± 0.34 | -1.07 ± 0.28
GGCGAGCAAUAUUACGCCUC | -1.67 ± 0.33 | –
GGCGAGCAAUAUUACGCUAU | -2.55 ± 0.21 | -1.11 ± 0.18
GGCGAGCAAUAUUACGGACU | -0.419 ± 0.077 | -0.219 ± 0.13
GGCGAGCAAUAUUACGGAGG | -2.52 ± 0.34 | -1.9 ± 0.45
GGCGAGCAAUAUUACGGCGG | -2 ± 0.39 | -1.28 ± 0.37
GGCGAGCAAUAUUACGGCGU | -2.49 ± 0.21 | -1.1 ± 0.2
GGCGAGCAAUAUUACGGGCU | -2.07 ± 0.36 | -1.23 ± 0.28
GGCGAGCAAUAUUACGGUGG | -3.31 ± 0.24 | -2.07 ± 0.22
GGCGAGCAAUAUUACGUAAC | -2.52 ± 0.19 | -0.781 ± 0.13
GGCGAGCAAUAUUACGUCCA | -1.97 ± 0.14 | -1.02 ± 0.12
GGCGAGCAAUAUUACGUGGG | -3.57 ± 0.44 | -1.44 ± 0.27
GGCGAGCAAUAUUACGUUAU | -3.17 ± 0.17 | -1.3 ± 0.16
GGCUAGCAAUAUUACGAAAA | -1.06 ± 0.24 | -1.33 ± 0.27
GGCUAGCAAUAUUACGAAAC | – | -0.972 ± 0.4
GGCUAGCAAUAUUACGAAUA | -0.326 ± 0.37 | -1.7 ± 0.28
GGCUAGCAAUAUUACGAAUG | -2.26 ± 0.14 | -1.01 ± 0.14
GGCUAGCAAUAUUACGACCU | -0.605 ± 0.081 | 0.0864 ± 0.09
GGCUAGCAAUAUUACGAGAA | – | -0.208 ± 0.37

Sequence | self-splicing fitness (ln) (30 °C) | self-splicing fitness (ln) (37 °C)
GGCUAGCAAUAUUACGAUCA | -0.733 ± 0.093 | -0.246 ± 0.088
GGCUAGCAAUAUUACGAUCG | -0.651 ± 0.12 | -0.58 ± 0.15
GGCUAGCAAUAUUACGCAGA | -1.3 ± 0.1 | -0.502 ± 0.11
GGCUAGCAAUAUUACGCGGC | -3.55 ± 0.43 | -2.19 ± 0.46
GGCUAGCAAUAUUACGCUAA | -0.801 ± 0.2 | -0.34 ± 0.15
GGCUAGCAAUAUUACGCUGA | -1.18 ± 0.12 | -0.413 ± 0.13
GGCUAGCAAUAUUACGGAUG | -0.642 ± 0.13 | -0.56 ± 0.15
GGCUAGCAAUAUUACGUAUG | -2.06 ± 0.13 | -0.678 ± 0.13
GGCUAGCAAUAUUACGUGCA | 0.326 ± 0.14 | 0.0604 ± 0.18
GGCUAGCAAUAUUACGUGUG | -0.503 ± 0.085 | -0.362 ± 0.083
GGCUAGCAAUAUUACGUUGG | -2.34 ± 0.16 | -3.24 ± 0.32
GGGAAGCAAUAUUACGACUC | -1.17 ± 0.1 | -0.341 ± 0.13
GGGAAGCAAUAUUACGAUUA | -1.56 ± 0.21 | -0.805 ± 0.18
GGGAAGCAAUAUUACGCAAU | -2.67 ± 0.17 | -1.42 ± 0.19
GGGAAGCAAUAUUACGCACG | -0.766 ± 0.16 | -0.128 ± 0.18
GGGAAGCAAUAUUACGCAGA | -3.81 ± 0.42 | -1.65 ± 0.27
GGGAAGCAAUAUUACGCAGC | -1.29 ± 0.14 | -1.12 ± 0.19
GGGAAGCAAUAUUACGCAGU | -2 ± 0.13 | 0.176 ± 0.14
GGGAAGCAAUAUUACGCAUG | -1.38 ± 0.16 | -0.366 ± 0.2
GGGAAGCAAUAUUACGCCAA | -1.66 ± 0.095 | -0.896 ± 0.1
GGGAAGCAAUAUUACGCGCG | -0.57 ± 0.13 | -0.552 ± 0.14
GGGAAGCAAUAUUACGCGGA | -2.82 ± 0.23 | -1.44 ± 0.18
GGGAAGCAAUAUUACGCUUC | -3.32 ± 0.4 | –
GGGAAGCAAUAUUACGCUUU | -3.54 ± 0.24 | –
GGGAAGCAAUAUUACGGAGG | -2.91 ± 0.41 | -1.99 ± 0.35

Sequence | self-splicing fitness (ln) (30 °C) | self-splicing fitness (ln) (37 °C)
GGGAAGCAAUAUUACGGAUA | – | -1.38 ± 0.42
GGGAAGCAAUAUUACGGCCA | -0.752 ± 0.14 | -0.611 ± 0.19
GGGAAGCAAUAUUACGGCGG | -1.2 ± 0.14 | -1.94 ± 0.24
GGGAAGCAAUAUUACGGCUU | -2.11 ± 0.2 | -1.41 ± 0.23
GGGAAGCAAUAUUACGGGGA | -1.49 ± 0.2 | -2.65 ± 0.29
GGGAAGCAAUAUUACGGUCU | -1.58 ± 0.086 | 0.382 ± 0.11
GGGAAGCAAUAUUACGUAAG | -1.09 ± 0.086 | -1.14 ± 0.13
GGGAAGCAAUAUUACGUAGU | -3.38 ± 0.18 | -2.18 ± 0.17
GGGAAGCAAUAUUACGUCCG | -1.81 ± 0.15 | -0.461 ± 0.18
GGGAAGCAAUAUUACGUGAU | -2.04 ± 0.1 | -1.83 ± 0.16
GGGAAGCAAUAUUACGUUAA | -2.82 ± 0.18 | -1.73 ± 0.19
GGGCAGCAAUAUUACGAAUC | -0.438 ± 0.15 | -0.491 ± 0.21
GGGCAGCAAUAUUACGAGCA | -1.98 ± 0.1 | -1.37 ± 0.11
GGGCAGCAAUAUUACGAGUG | -3.47 ± 0.24 | -1.64 ± 0.13
GGGCAGCAAUAUUACGCAAC | -0.812 ± 0.16 | -1.56 ± 0.13
GGGCAGCAAUAUUACGCACA | -0.436 ± 0.23 | 0.448 ± 0.23
GGGCAGCAAUAUUACGCGCC | -3.31 ± 0.18 | -2.82 ± 0.28
GGGCAGCAAUAUUACGCGUC | -2.55 ± 0.4 | -1.71 ± 0.31
GGGCAGCAAUAUUACGCUAU | -1.13 ± 0.077 | -0.411 ± 0.094
GGGCAGCAAUAUUACGGAAG | -3.03 ± 0.23 | -1.02 ± 0.17
GGGCAGCAAUAUUACGGAAU | -1.49 ± 0.11 | -1.3 ± 0.19
GGGCAGCAAUAUUACGGAUA | -2.63 ± 0.17 | -1.8 ± 0.13
GGGCAGCAAUAUUACGGGCG | -0.318 ± 0.088 | -0.0663 ± 0.1
GGGCAGCAAUAUUACGGUCC | -4.03 ± 0.46 | -2.14 ± 0.28
GGGCAGCAAUAUUACGGUUC | -1.53 ± 0.11 | -1.93 ± 0.13

Sequence | self-splicing fitness (ln) (30 °C) | self-splicing fitness (ln) (37 °C)
GGGCAGCAAUAUUACGUCAU | -0.717 ± 0.066 | 0.195 ± 0.076
GGGCAGCAAUAUUACGUCGA | -0.0821 ± 0.07 | 0.711 ± 0.1
GGGCAGCAAUAUUACGUGCA | -1.62 ± 0.079 | 0.116 ± 0.098
GGGCAGCAAUAUUACGUGGC | -3.12 ± 0.25 | -2.21 ± 0.26
GGGCAGCAAUAUUACGUUAA | -1.19 ± 0.1 | -0.46 ± 0.11
GGGCAGCAAUAUUACGUUUA | -1.09 ± 0.069 | -0.227 ± 0.094
GGGGAGCAAUAUUACGAACG | – | -1.11 ± 0.36
GGGGAGCAAUAUUACGAUAC | -2.37 ± 0.3 | -0.552 ± 0.27
GGGGAGCAAUAUUACGAUUC | -1.52 ± 0.16 | -0.791 ± 0.2
GGGGAGCAAUAUUACGCCCA | -1.14 ± 0.19 | -0.0692 ± 0.27
GGGGAGCAAUAUUACGCUAA | – | 0.376 ± 0.38
GGGGAGCAAUAUUACGCUGA | -3.2 ± 0.16 | -2.33 ± 0.2
GGGGAGCAAUAUUACGGCAA | -2.04 ± 0.33 | -0.565 ± 0.25
GGGGAGCAAUAUUACGGCGA | -2.4 ± 0.26 | -1.81 ± 0.24
GGGGAGCAAUAUUACGGGUU | -2.84 ± 0.22 | -2.2 ± 0.39
GGGGAGCAAUAUUACGGUCC | -1.26 ± 0.46 | –
GGGGAGCAAUAUUACGUCAA | -2.48 ± 0.3 | -3.16 ± 0.35
GGGGAGCAAUAUUACGUCCA | -0.767 ± 0.12 | -0.145 ± 0.22
GGGGAGCAAUAUUACGUUAC | -3.54 ± 0.38 | -1.07 ± 0.26
GGGGAGCAAUAUUACGUUGU | – | -1.82 ± 0.28
GGGGAGCAAUAUUACGUUUA | -2.13 ± 0.28 | -2.77 ± 0.48
GGGUAGCAAUAUUACGAACU | -0.832 ± 0.27 | -0.534 ± 0.19
GGGUAGCAAUAUUACGAUCU | -1.64 ± 0.092 | -0.576 ± 0.11
GGGUAGCAAUAUUACGCCGA | -0.784 ± 0.16 | -0.0895 ± 0.11
